How the values were obtained:
[1] = system: heart; assay: Contrast enhancement of the heart in rat at 1 hour after intravenous administration, MRI (in vivo test, Test 3); set-up: species or system Sprague-Dawley female rat; details: 1 hour after i.v. administration, 0.094 mmol/kg Gd vs 0.1 mmol/kg DTPA-Gd, 1.5T, T1 weighted spin echo
Procedure: Contrast enhancement of the heart in rat at 1 hour after intravenously administration of GPEN-DTES-Gd (in vivo test)
A solution of GPEN-DTES-Gd (Gd concentration: 75.1 mM) (0.094 mmol/kg in terms of Gd) was administered to a thiopental anesthetized Sprague-Dawley female rat (214 g, 9-weeks old) through a cannula fixed to femoral vein. At 1 hour after administration, the animal was sacrificed by administration of pentobarbital solution (1 ml) through the above cannula, fixed at prone position in the magnetic field of a MRI spectrometer. MRI measurement (transverse sectional view) of the chest region including the heart was carried out.
As a control, DTPA-Gd (MAGNEVIST®) was administered to a Sprague-Dawleyfemale rat (body weight: 204 g, 9-weeks old) through a cannula fixed at femoral vein (0.1 mmol/kg) and the measurement (transverse sectional view) of the chest region including the heart was carried out as described above.
The apparatus was SIGMA (manufactured by GE, U.S.A.) with magnetic field intensity of 1.5T and, as an imaging coil, a 26 cm .phi.bird-cage type head QD coil was used. Imaging was carried out according to spin echo method of T1 weighted (TR/TE, 600/30 msec) under the condition of 10 mm in slice thickness, a resolution of 256×128.

[2] = system: blood; assay: Relaxation time of GPEN-DTES-Gd in blood in mouse after intravenous administration (ex vivo test, Test 2); set-up: species or system ICR female mouse; details: 0.025 mmol/kg in terms of Gd, 15 minutes after administration
Procedure: Relaxation time of GPEN-DTES-Gd in blood in mouse after intravenous administration (ex vivo test)
GPEN-DTES-Gd (Gd concentration: 75 mM) (0.025 mmol/kg in terms of Gd) was administered to a thiopental anesthetized ICR female mouse (body weight: 44 g) through the tail vein. At 15 minutes after administration, the blood was taken from the aorta descendence, and the relaxation time (T1, msec) of the blood at room temperature (24° to 26° C.) was determined with a 6.35T NMR apparatus (manufactured by Nihondenshi K. K., Japan).
As a control, blood was taken from the aorta descendence of a thiopental anesthetized ICR female mouse (body weight: 55 g) and, according to the same manner, the relaxation time was determined.

[3] = Relaxivity of GPEN-DTES-Gd and GTRI-DTES-Gd, proton relaxation time by 6.35T NMR (in vitro test, Test 1); type: physicochemical; details: for R1 (relaxivity on T1): 24° to 26° C., calculated from relaxation times
Procedure: Relaxivity of GPEN-DTES-Gd and GTRI-DTES-Gd (in vitro test)
An appropriate amount of GPEN-DTES-Gd and GTRI-DTES-Gd were dissolved in distilled water. The relation to water proton exposed to these compounds was determined as a proton relaxation time (T1 and T2, msec) at room temperature (24° to 26° C.) using NMR (6.35T, manufactured by Nihondenshi K. K., Japan).
GPEN-DTES-Gd (2.3 mM) shortened remarkably the T1 value of water about 60 times and the T2 value of water 85 times. And GTRI-DTES-Gd (2.9 mM) shortened remarkably the T1 value of water about 70 times and the T2 value about 85 times. The relaxivity on T1 and T2 [each R1 and R2, (mM.S)^-1 ] were calculated based on the values in Tables 1 and 2.

[4] = in vivo; cited from earlier work
[5] = DTPA-Gd lower than Gd itself; cited from earlier work
[6] = 2.3 mM in distilled water, 6.35T, room temperature (24° to 26° C.)

Molecule | MRI signal intensity / contrast effect in the heart relative to DTPA-Gd (MAGNEVIST®) [1] | T1 relaxation time effect in blood compared with control mouse [2] | T1 in blood ([2]; tail vein, 6.35T, 24° to 26° C.) [ms] | Shortening of the T1 value of water ([3]; 2.3 mM) | Shortening of the T2 value of water ([3]; 2.3 mM) [times] | T1 relaxation time [3, 6] [ms] | T2 relaxation time [3, 6] [ms] | in vitro relaxation effect ([3]; in words, compared with DTPA-Gd) | T1 relaxivity in water ([3]; magnetic field intensity 6.35T, 25° C.) | R1 (relaxivity on T1) ([3]; water, 6.35T) | T1 relaxivity relative to DTPA-Gd ([3]; water, 6.35T, 25° C.) | excretion into the urine (in words) [4] | relaxivity relative to Gd itself [5]
(galactosamino-pentamer)-[1-(p-isothiocyanatebenzyl)-diethylenetriaminepentaacetic acid]gadolinate [GPEN-DTES-Gd] | about 1.8 times | about 2.3 times | 769 | about 60 times | 85 | 55 | 26 | predominantly higher than that of DTPA-Gd | 7.6 (mM.S)^-1 | 7.6 (mM · S)^-1 | about two | – | –
O=C([O-])CN(CCN(CC(=O)[O-])CC(=O)O)CCN(CC(=O)[O-])CC(=O)O.[Gd+3] [DTPA-Gd, (Diethylenetriaminepentaacetic acid)gadolinate] | – | – | – | – | – | – | – | – | – | 3.9 (mM · S)^-1 | – | rapidly excreted into the urine after administration | about 1/2
